# ± gives the standard deviation of the averaged measurements.
# B1: library; a variant is named by its letters at N, in order (parent)
# chain: GCUGUCACCGGUGCUUGGUACGUUAUAUUCAGCCGGUCUGAUGAGUCUNNNNNNAGACGAAACAGC
# What was measured:
# [1] = variants of: B1; assay: normalized RNA/DNA level without ligand (relative to sTRSVctl = 100) (log10 (% of sTRSVctl)); HEK293T overexpressing SLC46A1; higher = less ribozyme self-cleavage, higher mRNA level; details: without (6R,S)-folinic acid; ligand present: no
# In short: (§1)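 Only sequences with at least 100 DNA reads were analyzed, from HEK293T cells transfected with 4 µg per 6-well well of ribozyme switch library plasmids 72 h before RNA extraction with EDTA. Any ligand was added 1 h before transfection. RNA level was defined as RNA over DNA reads, normalized to a spiked-in non-cleaving sequence or to the top sequences, then scaled and log-transformed. The top set was 25 sequences, and the scaling was ×100 followed by log10.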
# [2] = variants of: B1; assay: normalized RNA/DNA level with ligand (relative to sTRSVctl = 100) (log10 (% of sTRSVctl)); HEK293T overexpressing SLC46A1; ligand concentration (+) RNA-Seq: 6 mM; higher = less ribozyme self-cleavage, higher mRNA level; details: with (6R,S)-folinic acid; ligand present: yes
# In short: as §1
Variant,normalized RNA/DNA level without ligand (log10) [1],normalized RNA/DNA level with ligand (log10) [2]
GCUGUCACCGGUGCUUGGUACGUUAUAUUCAGCCGGUCUGAUGAGUCUUAGUCAAGACGAAACAGC,1.98 ± 0.021,2.01 ± 0.038
GCUGUCACCGGUGCUUGGUACGUUAUAUUCAGCCGGUCUGAUGAGUCUCAGGUUAGACGAAACAGC,2 ± 0.032,2 ± 0.022
GCUGUCACCGGUGCUUGGUACGUUAUAUUCAGCCGGUCUGAUGAGUCUCAGGUCAGACGAAACAGC,2.08 ± 0.0023,2.04 ± 0.045
GCUGUCACCGGUGCUUGGUACGUUAUAUUCAGCCGGUCUGAUGAGUCUAAGGUUAGACGAAACAGC,1.974 ± 0.015,2.02 ± 0.025
GCUGUCACCGGUGCUUGGUACGUUAUAUUCAGCCGGUCUGAUGAGUCUUAGGGCAGACGAAACAGC,2.01 ± 0.0043,2.02 ± 0.03
GCUGUCACCGGUGCUUGGUACGUUAUAUUCAGCCGGUCUGAUGAGUCUCAGGAUAGACGAAACAGC,1.9357 ± 0.0006,1.97 ± 0.049
GCUGUCACCGGUGCUUGGUACGUUAUAUUCAGCCGGUCUGAUGAGUCUUAGGCAAGACGAAACAGC,1.972 ± 0.00036,2.027 ± 0.02
GCUGUCACCGGUGCUUGGUACGUUAUAUUCAGCCGGUCUGAUGAGUCUUAGGCUAGACGAAACAGC,2.03 ± 0.024,2.05 ± 0.061
GCUGUCACCGGUGCUUGGUACGUUAUAUUCAGCCGGUCUGAUGAGUCUUAGGCCAGACGAAACAGC,2.047 ± 0.004,2.04 ± 0.044
GCUGUCACCGGUGCUUGGUACGUUAUAUUCAGCCGGUCUGAUGAGUCUUAGGCGAGACGAAACAGC,1.762 ± 0.0037,1.97 ± 0.032
GCUGUCACCGGUGCUUGGUACGUUAUAUUCAGCCGGUCUGAUGAGUCUCAGGCCAGACGAAACAGC,2.06 ± 0.046,2.02 ± 0.049
GCUGUCACCGGUGCUUGGUACGUUAUAUUCAGCCGGUCUGAUGAGUCUCAGGCAAGACGAAACAGC,2.022 ± 0.019,2.009 ± 0.0063
GCUGUCACCGGUGCUUGGUACGUUAUAUUCAGCCGGUCUGAUGAGUCUCAGGCGAGACGAAACAGC,2.02 ± 0.023,2.03 ± 0.029
GCUGUCACCGGUGCUUGGUACGUUAUAUUCAGCCGGUCUGAUGAGUCUGAGGCCAGACGAAACAGC,2.041 ± 0.0098,2.044 ± 0.012
GCUGUCACCGGUGCUUGGUACGUUAUAUUCAGCCGGUCUGAUGAGUCUGAGGCGAGACGAAACAGC,2.003 ± 0.014,2.05 ± 0.055
GCUGUCACCGGUGCUUGGUACGUUAUAUUCAGCCGGUCUGAUGAGUCUGAGGCUAGACGAAACAGC,2.073 ± 0.0028,2.04 ± 0.022
GCUGUCACCGGUGCUUGGUACGUUAUAUUCAGCCGGUCUGAUGAGUCUAAGGGGAGACGAAACAGC,1.902 ± 0.011,2.038 ± 0.011
GCUGUCACCGGUGCUUGGUACGUUAUAUUCAGCCGGUCUGAUGAGUCUAAGGGCAGACGAAACAGC,2.0351 ± 4.5e-05,2.05 ± 0.045
GCUGUCACCGGUGCUUGGUACGUUAUAUUCAGCCGGUCUGAUGAGUCUGAGGGCAGACGAAACAGC,1.956 ± 0.011,2.04 ± 0.042
GCUGUCACCGGUGCUUGGUACGUUAUAUUCAGCCGGUCUGAUGAGUCUGAGGGGAGACGAAACAGC,2.007 ± 0.018,2.04 ± 0.051
GCUGUCACCGGUGCUUGGUACGUUAUAUUCAGCCGGUCUGAUGAGUCUCAGUCAAGACGAAACAGC,1.967 ± 0.0097,1.96 ± 0.058

Variant,normalized RNA/DNA level without ligand (log10) [1],normalized RNA/DNA level with ligand (log10) [2]
GCUGUCACCGGUGCUUGGUACGUUAUAUUCAGCCGGUCUGAUGAGUCUCAGUCCAGACGAAACAGC,2.051 ± 0.011,2.04 ± 0.037
GCUGUCACCGGUGCUUGGUACGUUAUAUUCAGCCGGUCUGAUGAGUCUUAGGUUAGACGAAACAGC,1.961 ± 0.011,2 ± 0.026
GCUGUCACCGGUGCUUGGUACGUUAUAUUCAGCCGGUCUGAUGAGUCUUAGGUCAGACGAAACAGC,2.05 ± 0.022,2 ± 0.054
GCUGUCACCGGUGCUUGGUACGUUAUAUUCAGCCGGUCUGAUGAGUCUAAGGCUAGACGAAACAGC,1.995 ± 0.011,2.019 ± 0.0048
GCUGUCACCGGUGCUUGGUACGUUAUAUUCAGCCGGUCUGAUGAGUCUAAGGCAAGACGAAACAGC,2.007 ± 0.0039,2.04 ± 0.022
GCUGUCACCGGUGCUUGGUACGUUAUAUUCAGCCGGUCUGAUGAGUCUAAGGCGAGACGAAACAGC,1.9326 ± 0.0006,2.03 ± 0.036
GCUGUCACCGGUGCUUGGUACGUUAUAUUCAGCCGGUCUGAUGAGUCUCAGGGCAGACGAAACAGC,1.994 ± 0.013,2.03 ± 0.046
GCUGUCACCGGUGCUUGGUACGUUAUAUUCAGCCGGUCUGAUGAGUCUCAGGGUAGACGAAACAGC,1.974 ± 0.014,2 ± 0.031
GCUGUCACCGGUGCUUGGUACGUUAUAUUCAGCCGGUCUGAUGAGUCUCAGGGAAGACGAAACAGC,1.962 ± 0.005,2 ± 0.029
GCUGUCACCGGUGCUUGGUACGUUAUAUUCAGCCGGUCUGAUGAGUCUCAGGGGAGACGAAACAGC,1.87 ± 0.049,1.996 ± 0.016
GCUGUCACCGGUGCUUGGUACGUUAUAUUCAGCCGGUCUGAUGAGUCUAAGUCAAGACGAAACAGC,1.969 ± 0.0021,1.98 ± 0.029
GCUGUCACCGGUGCUUGGUACGUUAUAUUCAGCCGGUCUGAUGAGUCUAAGUCCAGACGAAACAGC,2 ± 0.023,2.01 ± 0.024
GCUGUCACCGGUGCUUGGUACGUUAUAUUCAGCCGGUCUGAUGAGUCUCAGUAGAGACGAAACAGC,1.93 ± 0.023,1.99 ± 0.052
GCUGUCACCGGUGCUUGGUACGUUAUAUUCAGCCGGUCUGAUGAGUCUCAGUACAGACGAAACAGC,1.96 ± 0.036,1.97 ± 0.04
GCUGUCACCGGUGCUUGGUACGUUAUAUUCAGCCGGUCUGAUGAGUCUCAGUAUAGACGAAACAGC,1.951 ± 0.0075,2.016 ± 0.013
GCUGUCACCGGUGCUUGGUACGUUAUAUUCAGCCGGUCUGAUGAGUCUUAGUACAGACGAAACAGC,1.972 ± 0.002,2.01 ± 0.048
GCUGUCACCGGUGCUUGGUACGUUAUAUUCAGCCGGUCUGAUGAGUCUAAGUAUAGACGAAACAGC,1.959 ± 0.011,2.02 ± 0.03
GCUGUCACCGGUGCUUGGUACGUUAUAUUCAGCCGGUCUGAUGAGUCUAAGUACAGACGAAACAGC,2.02 ± 0.024,2.03 ± 0.039
GCUGUCACCGGUGCUUGGUACGUUAUAUUCAGCCGGUCUGAUGAGUCUGAGGUCAGACGAAACAGC,2.038 ± 0.01,2.04 ± 0.052
GCUGUCACCGGUGCUUGGUACGUUAUAUUCAGCCGGUCUGAUGAGUCUGAGUAUAGACGAAACAGC,1.982 ± 0.0044,2.014 ± 0.02

# Reference: the supplement of paper PMC6757056
